# Substrate: CCOC(N)=O
# Assay: purified protein
# Assay type: biochemical, Lysinibacillus fusiformis
# Settings: free enzyme, EC 0-300 mM, activity assay at 37 °C, pH not stated
row,Protein,Km [mM]
1,EC hydrolase (ethyl carbamate hydrolase) (Lysinibacillus fusiformis; H68A/K70R/S325N) (protein) MTTDLHLKSVEELAPLLASKSLSPVELTKAILDFAEESQPKINSYMAFYREEALARAKEVEQEILQGAYRGMYHGIPMALKDNLYFKDKITTMSSKIHKDFVSDYDATVVEKLRDAGVIFTGKLSMHEYAWGITNNNPHYGPVRNPWDLDKIPGGSSGGSGAAVAAGASVASLGTDTAGSIRIPSSACGIVGLKPTHGRVSKYGCYPLAWSLDHIGPMTKTVKDAAGLLEVIAGFDHQDPTCVNVPVDNYEKQLTGNIKDLVIGINEEYFFNNVDADVEKAVRASIQSLVDSGAKVEVVRIPSLQYAEWAELVTSLSEAAAIHHNDLQKRPQDFGDDIRLLFELGELPSAVDYLQAQQVRRQIKQEFTEIFNKVDVLISPTLPIVASTIGDDFAELNGQKVDLIDNIIRFTGPSNLTGLPALSVPCGFKGNLPIGLQIIGPAFKEGRILNVGYAVEQANPQRNRKPNIFANI,28.2 ± 4.41
2,EC hydrolase (ethyl carbamate hydrolase) (Lysinibacillus fusiformis; S325N) (protein) MTTDLHLKSVEELAPLLASKSLSPVELTKAILDFAEESQPKINSYMAFYREEALARAKEVEQEILQGHYKGMYHGIPMALKDNLYFKDKITTMSSKIHKDFVSDYDATVVEKLRDAGVIFTGKLSMHEYAWGITNNNPHYGPVRNPWDLDKIPGGSSGGSGAAVAAGASVASLGTDTAGSIRIPSSACGIVGLKPTHGRVSKYGCYPLAWSLDHIGPMTKTVKDAAGLLEVIAGFDHQDPTCVNVPVDNYEKQLTGNIKDLVIGINEEYFFNNVDADVEKAVRASIQSLVDSGAKVEVVRIPSLQYAEWAELVTSLSEAAAIHHNDLQKRPQDFGDDIRLLFELGELPSAVDYLQAQQVRRQIKQEFTEIFNKVDVLISPTLPIVASTIGDDFAELNGQKVDLIDNIIRFTGPSNLTGLPALSVPCGFKGNLPIGLQIIGPAFKEGRILNVGYAVEQANPQRNRKPNIFANI,45.52 ± 9.41
3,EC hydrolase (ethyl carbamate hydrolase) (Lysinibacillus fusiformis; K70R) (protein) MTTDLHLKSVEELAPLLASKSLSPVELTKAILDFAEESQPKINSYMAFYREEALARAKEVEQEILQGHYRGMYHGIPMALKDNLYFKDKITTMSSKIHKDFVSDYDATVVEKLRDAGVIFTGKLSMHEYAWGITNNNPHYGPVRNPWDLDKIPGGSSGGSGAAVAAGASVASLGTDTAGSIRIPSSACGIVGLKPTHGRVSKYGCYPLAWSLDHIGPMTKTVKDAAGLLEVIAGFDHQDPTCVNVPVDNYEKQLTGNIKDLVIGINEEYFFNNVDADVEKAVRASIQSLVDSGAKVEVVRIPSLQYAEWAELVTSLSEAAAIHHSDLQKRPQDFGDDIRLLFELGELPSAVDYLQAQQVRRQIKQEFTEIFNKVDVLISPTLPIVASTIGDDFAELNGQKVDLIDNIIRFTGPSNLTGLPALSVPCGFKGNLPIGLQIIGPAFKEGRILNVGYAVEQANPQRNRKPNIFANI,33.38 ± 5.67
4,EC hydrolase (ethyl carbamate hydrolase) (Lysinibacillus fusiformis; H68A/S325N) (protein) MTTDLHLKSVEELAPLLASKSLSPVELTKAILDFAEESQPKINSYMAFYREEALARAKEVEQEILQGAYKGMYHGIPMALKDNLYFKDKITTMSSKIHKDFVSDYDATVVEKLRDAGVIFTGKLSMHEYAWGITNNNPHYGPVRNPWDLDKIPGGSSGGSGAAVAAGASVASLGTDTAGSIRIPSSACGIVGLKPTHGRVSKYGCYPLAWSLDHIGPMTKTVKDAAGLLEVIAGFDHQDPTCVNVPVDNYEKQLTGNIKDLVIGINEEYFFNNVDADVEKAVRASIQSLVDSGAKVEVVRIPSLQYAEWAELVTSLSEAAAIHHNDLQKRPQDFGDDIRLLFELGELPSAVDYLQAQQVRRQIKQEFTEIFNKVDVLISPTLPIVASTIGDDFAELNGQKVDLIDNIIRFTGPSNLTGLPALSVPCGFKGNLPIGLQIIGPAFKEGRILNVGYAVEQANPQRNRKPNIFANI,33.27 ± 2.31
5,EC hydrolase (ethyl carbamate hydrolase) (Lysinibacillus fusiformis) (protein) MTTDLHLKSVEELAPLLASKSLSPVELTKAILDFAEESQPKINSYMAFYREEALARAKEVEQEILQGHYKGMYHGIPMALKDNLYFKDKITTMSSKIHKDFVSDYDATVVEKLRDAGVIFTGKLSMHEYAWGITNNNPHYGPVRNPWDLDKIPGGSSGGSGAAVAAGASVASLGTDTAGSIRIPSSACGIVGLKPTHGRVSKYGCYPLAWSLDHIGPMTKTVKDAAGLLEVIAGFDHQDPTCVNVPVDNYEKQLTGNIKDLVIGINEEYFFNNVDADVEKAVRASIQSLVDSGAKVEVVRIPSLQYAEWAELVTSLSEAAAIHHSDLQKRPQDFGDDIRLLFELGELPSAVDYLQAQQVRRQIKQEFTEIFNKVDVLISPTLPIVASTIGDDFAELNGQKVDLIDNIIRFTGPSNLTGLPALSVPCGFKGNLPIGLQIIGPAFKEGRILNVGYAVEQANPQRNRKPNIFANI,37.67 ± 3.55
6,EC hydrolase (ethyl carbamate hydrolase) (Lysinibacillus fusiformis; H68A) (protein) MTTDLHLKSVEELAPLLASKSLSPVELTKAILDFAEESQPKINSYMAFYREEALARAKEVEQEILQGAYKGMYHGIPMALKDNLYFKDKITTMSSKIHKDFVSDYDATVVEKLRDAGVIFTGKLSMHEYAWGITNNNPHYGPVRNPWDLDKIPGGSSGGSGAAVAAGASVASLGTDTAGSIRIPSSACGIVGLKPTHGRVSKYGCYPLAWSLDHIGPMTKTVKDAAGLLEVIAGFDHQDPTCVNVPVDNYEKQLTGNIKDLVIGINEEYFFNNVDADVEKAVRASIQSLVDSGAKVEVVRIPSLQYAEWAELVTSLSEAAAIHHSDLQKRPQDFGDDIRLLFELGELPSAVDYLQAQQVRRQIKQEFTEIFNKVDVLISPTLPIVASTIGDDFAELNGQKVDLIDNIIRFTGPSNLTGLPALSVPCGFKGNLPIGLQIIGPAFKEGRILNVGYAVEQANPQRNRKPNIFANI,31.38 ± 5.61
7,EC hydrolase (ethyl carbamate hydrolase) (Lysinibacillus fusiformis; A178L) (protein) MTTDLHLKSVEELAPLLASKSLSPVELTKAILDFAEESQPKINSYMAFYREEALARAKEVEQEILQGHYKGMYHGIPMALKDNLYFKDKITTMSSKIHKDFVSDYDATVVEKLRDAGVIFTGKLSMHEYAWGITNNNPHYGPVRNPWDLDKIPGGSSGGSGAAVAAGASVASLGTDTLGSIRIPSSACGIVGLKPTHGRVSKYGCYPLAWSLDHIGPMTKTVKDAAGLLEVIAGFDHQDPTCVNVPVDNYEKQLTGNIKDLVIGINEEYFFNNVDADVEKAVRASIQSLVDSGAKVEVVRIPSLQYAEWAELVTSLSEAAAIHHSDLQKRPQDFGDDIRLLFELGELPSAVDYLQAQQVRRQIKQEFTEIFNKVDVLISPTLPIVASTIGDDFAELNGQKVDLIDNIIRFTGPSNLTGLPALSVPCGFKGNLPIGLQIIGPAFKEGRILNVGYAVEQANPQRNRKPNIFANI,96.78 ± 6.09
8,EC hydrolase (ethyl carbamate hydrolase) (Lysinibacillus fusiformis; K70R/S325N) (protein) MTTDLHLKSVEELAPLLASKSLSPVELTKAILDFAEESQPKINSYMAFYREEALARAKEVEQEILQGHYRGMYHGIPMALKDNLYFKDKITTMSSKIHKDFVSDYDATVVEKLRDAGVIFTGKLSMHEYAWGITNNNPHYGPVRNPWDLDKIPGGSSGGSGAAVAAGASVASLGTDTAGSIRIPSSACGIVGLKPTHGRVSKYGCYPLAWSLDHIGPMTKTVKDAAGLLEVIAGFDHQDPTCVNVPVDNYEKQLTGNIKDLVIGINEEYFFNNVDADVEKAVRASIQSLVDSGAKVEVVRIPSLQYAEWAELVTSLSEAAAIHHNDLQKRPQDFGDDIRLLFELGELPSAVDYLQAQQVRRQIKQEFTEIFNKVDVLISPTLPIVASTIGDDFAELNGQKVDLIDNIIRFTGPSNLTGLPALSVPCGFKGNLPIGLQIIGPAFKEGRILNVGYAVEQANPQRNRKPNIFANI,40.82 ± 3.56
